Assay results as given in patent publication US10704056B2, “Constitutively active ABA receptor mutants” (The Regents of the University of California, priority 2011, dated 2020).

T1: ABI2 (Arabidopsis thaliana, UniProt O04719)
T1 construct: Full length ABI1 and ABI2 were cloned into a modified pSUMO vector; made in house; host or cells: E. coli BL21 (DE3) pLysS
T1 sequence (O04719 1-423): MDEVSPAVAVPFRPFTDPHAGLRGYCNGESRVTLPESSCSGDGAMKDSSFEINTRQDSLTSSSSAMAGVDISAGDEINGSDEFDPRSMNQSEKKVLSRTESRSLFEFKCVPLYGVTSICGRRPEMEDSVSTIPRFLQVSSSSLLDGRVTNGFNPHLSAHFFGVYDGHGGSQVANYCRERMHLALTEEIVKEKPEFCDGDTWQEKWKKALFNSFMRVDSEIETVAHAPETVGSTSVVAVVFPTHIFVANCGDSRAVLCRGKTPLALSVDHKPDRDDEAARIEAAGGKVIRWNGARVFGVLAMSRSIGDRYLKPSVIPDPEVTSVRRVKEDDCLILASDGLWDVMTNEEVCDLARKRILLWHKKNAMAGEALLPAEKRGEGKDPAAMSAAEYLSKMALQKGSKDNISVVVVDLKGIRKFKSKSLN

T2: ABI1 (Arabidopsis thaliana, UniProt P49597)
T2 construct: Full length ABI1 and ABI2 were cloned into a modified pSUMO vector; made in house; host or cells: E. coli BL21 (DE3) pLysS
T2 sequence (P49597 1-434): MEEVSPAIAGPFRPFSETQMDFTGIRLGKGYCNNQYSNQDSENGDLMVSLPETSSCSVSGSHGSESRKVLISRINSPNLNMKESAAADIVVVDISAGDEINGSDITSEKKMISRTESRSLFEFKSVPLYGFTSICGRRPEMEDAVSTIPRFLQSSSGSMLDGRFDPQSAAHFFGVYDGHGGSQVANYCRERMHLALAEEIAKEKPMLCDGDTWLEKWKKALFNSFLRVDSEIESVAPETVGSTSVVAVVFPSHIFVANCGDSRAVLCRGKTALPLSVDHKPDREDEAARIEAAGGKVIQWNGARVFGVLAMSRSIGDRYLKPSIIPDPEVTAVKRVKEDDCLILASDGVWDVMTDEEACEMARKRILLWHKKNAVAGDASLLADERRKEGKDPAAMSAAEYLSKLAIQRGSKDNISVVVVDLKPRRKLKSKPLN


Columns and labels:
ABI2 = molecular target: T1, ABI2; assay: In vitro PP2C phosphatase (pNPP) receptor activation assay with ABI2; type: biochemical; settings: 600 nM PP2C, 0-4800 nM receptor, no ABA
Experimental: (§1) Full length ABI1 and ABI2 were cloned into a modified pSUMO vector (LifeSensors Inc, USA) vector yielding 6×His-SUMO fusion proteins; GST-HAB1 was expressed and purified as previously described (Park et al., 2009). Mutant receptors were cloned into pET28 yielding 6×His-fusion proteins. […]. The cultures were pre-incubated 2 hours at 30° C. and, for PP2C expression, media was supplemented with 4 mM MnCl2 one hour after inoculation. After pre-incubation, IPTG was added (1 mM) and cells were induced at 15° C. for 16 hours, after which they were collected by centrifugation, resuspended in 5 ml Buffer A (50 mM NaH2PO4, 300 mM NaCl) +10 mM imidazole, pH 8.0 and stored at −80° C. For purification, cells were thawed, sonicated on ice (60 seconds) and a cleared lysate was then applied a 1 ml-bed volume column of Ni-NTA (Qiagen, USA), washed with 20 column volumes of Buffer A+30 mM imidazole and bound protein eluted with 1 ml of Buffer A+250 mM imidazole. For receptors, the elutate was dialyzed against TBS and for PP2Cs, fusion proteins were desalted by passage over a Sephadex G50 column.
(§2) The purified receptors and phosphatases were then used in receptor assays where receptor activation is indicated by inhibition of phosphatase activity, as inferred from initial reaction velocities for PP2C-mediated hydrolysis of the synthetic phosphatase substrate pNPP in reactions containing 600 nM PP2C and either 0, 600, 1200, 2400 or 4800 nM receptor. The receptor assay buffer consisted of 33 mM Tris-OAc, pH 7.9, 66 mM KOAc, 0.1% BSA, 25 mM Mn(OAc)2, 0.1%13-ME and 50 mM pNPP. Immediately after mixing proteins and substrates, reactions were monitored for hydrolysis of pNPP at A405 at ˜2 minutes intervals using a Wallac plate reader. Reaction progressions were plotted, initial velocities calculated and converted to specific activities by comparison to a standard curve for 4-nitrophenol made in the same buffer system. PP2C activity values shown in figures are expressed as %-control phosphatase activity levels, as measured under identical reaction conditions in the absence of receptor protein. The average specific activity level of GST-HAB1, 6×His-SUMO-ABI1 and 6×His-SUMO-ABI2 utilized in our experiments was 4500 (GST-PP2C) or 2500 (SUMO-PP2C) μmol/min/mg, when assayed using the phosphatase substrate pNPP in the absence of PYR1 or other receptors.

HAB1 = assay: In vitro PP2C phosphatase (pNPP) receptor activation assay with HAB1; type: biochemical, Arabidopsis; settings: 600 nM GST-HAB1, 0-4800 nM receptor, no ABA
Experimental: Recombinant receptor proteins were produced as follows: Coding sequences were cloned into pET28 yielding 6×HIS (SEQ ID NO:173) fusions proteins and transformed into E. coli expression strain BL21. […]. Cells were stored at −80° C. before purification. After thawing, cells were sonicated on ice five times for 30 sec with 30 sec resting intervals. A cleared lysate was obtained after centrifugation at 12,000×g for 10 min and applied to 1 ml of Ni-NTA column (Qiagen) and washed with 20 column volumes of Buffer A containing 30 mM imidazole. Bound protein was eluted with 10 ml of Buffer A with 250 mM imidazole. The elutate was dialyzed against TBS. The purified recombinant proteins were then used together with recombinant phosphatases in receptor assays. In these assays, receptor activity is indicated by inhibition of phosphatase activity, as inferred from initial reaction velocities for GST-HAB1 mediated hydrolysis of the synthetic phosphatase substrate pNPP. Reactions contained 600 nM GST-HAB1 and either 0, 600, 1200, 2400 or 4800 nM 6×His-PYR1 or variants in a reaction buffer consisting of 33 mM Tris-OAc, pH 7.9, 66 mM KOAc, 0.1% BSA, 25 mM Mn(OAc)2, 50 mM pNPP. To infer the level of receptor activation with respect to fully activated wild type receptor, control reactions were also conducted using saturating levels of (+)-ABA (10 μM), and 600 nM wild type PYR1 and HAB1. Immediately after mixing proteins and substrates, reactions were monitored for hydrolysis of pNPP at A405 at ˜10 second intervals over 20 minutes using a Wallac plate reader. Reaction progressions were plotted, initial velocities calculated and converted to specific activities using a standard curve for 4-nitrophenol made in the same buffer system volumes/plate reader used for enzymatic reaction measurements. The values shown are expressed as %-control phosphatase activity levels as measured in the absence of receptor protein. The average specific activity level of GST-HAB1 utilized in our experiments was 4000 μmol/min/mg, when assayed on the phosphatase substrate pNPP in the absence of PYR1 or other receptors, as described using the methods above.
as §1
The purified receptors and phosphatases were then used in receptor assays where receptor activation is indicated by inhibition of phosphatase activity, as inferred from initial reaction velocities for PP2C-mediated hydrolysis of the synthetic phosphatase substrate pNPP in reactions containing 600 nM PP2C and either 0, 600, 1200, 2400 or 4800 nM receptor. The receptor assay buffer consisted of 33 mM Tris-OAc, pH 7.9, 66 mM KOAc, 0.1% BSA, 25 mM Mn(OAc)2, 0.1%13-ME and 50 mM pNPP. Immediately after mixing proteins and substrates, reactions were monitored for hydrolysis of pNPP at A405 at ˜2 minutes intervals using a Wallac plate reader. […]

ABI1 = molecular target: T2, ABI1; assay: In vitro PP2C phosphatase (pNPP) receptor activation assay with ABI1; type: biochemical; settings: 600 nM PP2C, 0-4800 nM receptor, no ABA
Experimental: as §1, §2

| Molecule | constitutive receptor activity on ABI2 in the absence of ABA (ABI2) | constitutive receptor activity on ABI1 in the absence of ABA (ABI1) | basal receptor activity (inhibition of HAB1 phosphatase activity in the absence of ABA) (HAB1) |
| --- | --- | --- | --- |
| PYL9^CA4: PYL9 mutant (V85F, Y160I, F161V) (protein) HHHHHHMMDGVEGGTAMYGGLETVQYVRTHHQHLCRENQCTSALVKHIKAPLHLVWSLVRRFDQPQKYKPFVSRCTVIGDPEIGSLREVNFKSGLPATTSTERLELLDDEEHILGIKIIGGDHRLKNYSSILTVHPEIIEGRAGTMVIESFVVDVPQGNTKDETCIVVEALIRCNLKSLADVSERLASQDITQ | active towards multiple PP2Cs | active towards multiple PP2Cs | highly activated in the absence of ABA |
| PYL2^CA4: PYL2 mutant (H65P, V87F, M1641, F165V) (protein) HHHHHHMSSSPAVKGLTDEEQKTLEPVIKTYHQFEPDPTTCTSLITQRIHAPASVVWPLIRRFDNPERYKPFVKRCRLISGDGDVGSVREVTFISGLPASTSTERLEFVDDDHRVLSFRVVGGEHRLKNYKSVTSVNEFLNQDSGKVYTVVLESYTVDIPEGNTEEDTKIVVDTVVKLNLQKLGVAATSAPMHDDE | active towards multiple PP2Cs | active towards multiple PP2Cs | highly activated in the absence of ABA |

Second part, led by results:

| constitutive receptor activity on ABI2 in the absence of ABA (ABI2) | constitutive receptor activity on ABI1 in the absence of ABA (ABI1) | Molecule | basal receptor activity (inhibition of HAB1 phosphatase activity in the absence of ABA) (HAB1) |
| --- | --- | --- | --- |
| interact with ABI1 and ABI2 | interact with ABI1 and ABI2 | PYR1^CA3: PYR1 triple mutant (H60P, V83F, F159V) (protein) HHHHHHMPSELTPEERSELKNSIAEFHTYQLDPGSCSSLHAQRIHAPPELVWSIVRRFDKPQTYKPFIKSCSVEQNFEMRVGCTRDVIFISGLPANTSTERLDILDDERRVTGFSIIGGEHRLTNYKSVTTVHRFEKENRIWTVVLESYVVDMPEGNSEDDTRMVADTVVKLNLQKLATVAEAMARNSGDGSGSQVT | dramatically increased basal PYR1 activity |
| interact with ABI1 and ABI2 | interact with ABI1 and ABI2 | PYR1^CA4: PYR1 quadruple mutant (H60P, V83F, F159V, M158I) (protein) HHHHHHMPSELTPEERSELKNSIAEFHTYQLDPGSCSSLHAQRIHAPPELVWSIVRRFDKPQTYKPFIKSCSVEQNFEMRVGCTRDVIFISGLPANTSTERLDILDDERRVTGFSIIGGEHRLTNYKSVTTVHRFEKENRIWTVVLESYVVDMPEGNSEDDTRIVADTVVKLNLQKLATVAEAMARNSGDGSGSQVT | dramatically increased basal PYR1 activity |
